Laboratory results as given in paper PMC9358478 (The Journal of Biological Chemistry, 2022).

Molecular target: T1, full-length recombinant human TG2 (human, UniProt P21980 1-687)
T1 sequence: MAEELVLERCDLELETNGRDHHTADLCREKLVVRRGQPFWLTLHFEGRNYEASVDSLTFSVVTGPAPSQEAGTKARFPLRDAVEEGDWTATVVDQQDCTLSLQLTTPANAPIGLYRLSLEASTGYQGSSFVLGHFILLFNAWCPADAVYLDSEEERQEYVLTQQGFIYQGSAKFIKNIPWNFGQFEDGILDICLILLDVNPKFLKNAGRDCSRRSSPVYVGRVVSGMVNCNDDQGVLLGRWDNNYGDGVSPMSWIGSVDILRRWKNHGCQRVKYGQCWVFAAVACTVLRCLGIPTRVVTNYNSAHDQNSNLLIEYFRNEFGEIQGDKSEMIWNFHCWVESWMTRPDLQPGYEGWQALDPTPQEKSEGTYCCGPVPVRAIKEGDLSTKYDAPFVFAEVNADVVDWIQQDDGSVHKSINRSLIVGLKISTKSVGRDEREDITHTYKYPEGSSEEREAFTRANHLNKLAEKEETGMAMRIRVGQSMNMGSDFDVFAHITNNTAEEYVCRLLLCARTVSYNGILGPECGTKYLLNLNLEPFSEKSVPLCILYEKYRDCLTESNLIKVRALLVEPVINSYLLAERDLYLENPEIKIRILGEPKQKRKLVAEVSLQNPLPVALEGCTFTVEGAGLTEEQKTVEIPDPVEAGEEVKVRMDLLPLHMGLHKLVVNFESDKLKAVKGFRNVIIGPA
Assay: co-IP

B1: full-length recombinant human ILK (natural protein)
chain: MDDIFTQCREGNAVAVRLWLDNTENDLNQGDDHGFSPLHWACREGRSAVVEMLIMRGARINVMNRGDDTPLHLAASHGHRDIVQKLLQYKADINAVNEHGNVPLHYACFWGQDQVAEDLVANGALVSICNKYGEMPVDKAKAPLRELLRERAEKMGQNLNRIPYKDTFWKGTTRTRPRNGTLNKHSGIDFKQLNFLTKLNENHSGELWKGRWQGNDIVVKVLKVRDWSTRKSRDFNEECPRLRIFSHPNVLPVLGACQSPPAPHPTLITHWMPYGSLYNVLHEGTNFVVDQSQAVKFALDMARGMAFLHTLEPLIPRHALNSRSVMIDEDMTARISMADVKFSFQCPGRMYAPAWVAPEALQKKPEDTNRRSADMWSFAVLLWELVTREVPFADLSNMEIGMKVALEGLRPTIPPGISPHVCKLMKICMNEDPAKRPKFDMIVPILEKMQDK
binding result: binds
